Measurements from the DeepSol protein solubility set.

experiment: soluble on expression in E. coli; label from the status in PepcDB or PDB records

Sequence | soluble on expression in E. coli
MNSRQQTILQMVIDQGQVSVTDLAKATGVSEVTIRQDLNTLEKLSYLRRAHGFAVSLDSDDVETRMMSNYTLKRELAEFAASLVQPGETIFIENGSSNALLARTLGEQKKNVTIITVSSYIAHLLKDAPCEVILLGGVYQKKSESMVGPLTRQCIQQVHFSKAFIGIDGWQPETGFTGRDMMRTDVVNAVLEKECEAIVLTDSSKFGAVHSYSIGPVERFNRVITDSKIRASDLMHLEHSKLTIHVVDI | not soluble
MKLTIIRLQHFSDQDRIDLGKIWPSQDLSTLTLDENHRLYAAHFNERLLGAVRVTLRGVEGELSDLCVREVTRRRGVGQYLVEETLRDNPAINSWRVADHGVEDRGVMAAFMQALGFSAQQ | not soluble
MKKILVLGGAHIDRRGMIETETAPGASNPGSWMEEAGGGGFNAARNLSRLGFEVRIIAPRGGDVTGEVVAEAARQAGVEDTPFTFLDRRTPSYTAILERDGNLVIALADMDLYKLFTPRRLKVRAVREAIIASDFLLCDANLPEDTLTALGLIARACEKPLAAIAISPAKAVKLKAALGDIDILFMNEAEARALTGETAENVRDWPNILRKAGLSGGVVTRGASEVVAFNGTEKAILHPPLIREVKDVTGAGDAMASGYLAAIAEGKTIREALRQGAAAAAITVQSSFATSQDLSKDSVEAMLGLVPQAEMLA | soluble
SESQSEEIDCNDKDLFKAVDAALKKYNSQNQSNNQFVLYRITEATKTVGSDTFYSFKYEIKEGDCPVQSGKTWQDCEYKDAAKAATGECTATVGKRSSTKFSVATQTCQITPAEGPVVTAQYDCLGCVHPISTQSPDLEPILRHG | soluble
MKSRIVYGPILSRRLGRSLGIDVIKNTGSKKNCNYDCIYCQLGHVELKLGSPEDVKEAVTPKEVSESFEKFYKDVEGLDYITFSGTCEPSLNLSLGEMIQSIREISGVPVCVITNSSLMGREDVRKNLSQADLVVATLVSGIEKTWRKIHRPAPCINFQEIIEGLRELAKAGDGKKLALEVMFLESETGEPLNSTDEEVDCLIKTIRYICPDEIEVLTISRPPAEKWVKPVSEERLREIADRFISEFGAEKVRLVLKGKKKKAKVLHRDLEEEVYALLLRRPCTFEQTWQGLSIDPESLRPVLEKLLAEGKIEEIGSKNSVYYRAK | not soluble
MSLIRIGHGFDVHAFGEDRPLIIGGVEVPYHTGFIAHSDGDVALHALTDAILGAAALGDIGKLFPDTDMQYKNADSRGLLREAFRQVQEKGYKIGNVDITIIAQAPKMRPHIDAMRAKIAEDLQCDIEQVNVKATTTEKLGFTGRQEGIACEAVALLIRQEGGSHHHHHH | soluble
MFLAGAFIAVGSLYAQSSDAEWQAGVAKLKETIQTNPAQANEEAEQLIKGKNKKNVELLVAIGEVYLKAGKLPEAQEYAALAKKVNGKSALASVLEGDIAFEQKNAGLASQKYEEAIYFDPSCTEAYLRYADIYKSANAALAIEKLEQLKAQEPSNTAVDKKLAEIYYLKNDFSKAAEAYSRFAMGPTATEEDLVKYAFALFLNHDFEKSLEVANMGLKKNARHAAFNRLAMYNYTDLKRFDEAIKAADAFFTESDKADYSYLDYMYYGHLLEALKKYDEAVGQYEKAIQLDPTKTDLYKNISSAYEQKNDYKKAISAYQKYYTSLDKLEHHHHHH | soluble
MATGVIRGAELSPSYIIEEILGLYQNIVVLSNEEIVYGLSDRNRELFQELEYLVSLEVEDSVVQDILQKKELEPAFTEIKRFRNLYTVRLETEHAKEILSSDSPWASLEMFSFYGNYLKLVRTEYEGLRLSSGDTVFFLGSGPLPLTLIVFFRLYGVKSTGIEKDSFRANLSKKVLEKLGLSSVIKIVNGNHFSLSRKDLSLSPDTGVKALMIAAQAEPKKEIFEHLLEVMPIGGRISCRIYEKGLRKLLSGNCLFDLPEGFVEQERVQPQPPVYNTVIFFEKKRLEHHHHHH | not soluble
MGHHHHHHSHMTDIKILDACCGSRLFWFDKNEPHTTFMDVRQEKFEMHGKKINVNPDVIGDFRDMPFESNSFNLVVFDPPHLKYVGQNSIMKAQYGQLDKENWKEDISKGFEECMRVLKVGGTLVFKWSDCQVNVREVLSAIPFKPLFGQQRGTTHWMTFVKFELTGNGG | not soluble
MILERVEIVGFRGINRLSLMLEQNNVLIGENAWGKSSLLDALTLLLSPESDLYHFERDDFWFPPGDINGREHHLHIILTFRESLPGRHRVRRYRPLEACWTPCTDGYHRIFYRLEGESAEDGSVMTLRSFLDKDGHPIDVEDINDQARHLVRLMPVLRLRDARFMRRIRNGTVPNVPNVEVTARQLDFLARELSSHPQNLSDGQIRQGLSAMVQLLEHYFSEQGAGQARYRLMRRRASNEQRSWRYLDIINRMIDRPGGRSYRVILLGLFATLLQAKGTLRLDKDARPLLLIEDPETRLHPIMLSVAWHLLNLLPLQRIATTNSGELLSLTPVEHVCRLVRESSRVAAWRLGPSGLSTEDSRRISFHIRFNRPSSLFARCWLLVEGETETWVINELARQCGHHFDAEGIKVIEFAQSGLKPLVKFARRMGIEWHVLVDGDEAGKKYAATVRSLLNNDREAEREHLTALPALDMEHFMYRQGFSDVFHRVAQIPENVPMNLRKIISKAIHRSSKPDLAIEVAMEAGRRGVDSVPTLLKKMFSRVLWLARGRAD | not soluble
MHCDLPCGVYDPAQARIEAESVKAVQEKMAGNDDPHFQTRATVIKEQRAELAKHHVSVLWSDYFKPPHFEKYPELHQLVNDTLKAMSAAKGSKDPATGQKALDYIAQIDKIFWETKKA | soluble
MSLSKTRTFLFDLYGVLIKEHGAAQFERVARAVGEPSKNDKLHEVYESLRLDLDAGRVSEVNYWNQIKLLVGLEFLDIQEVIAADYRGLYERDQDMVDYVLSLKAKGHRIGILSNIPEGLAKLLKEHNSEWLDQLDAVTLSCDIGAAKPEPKSFHVALEALGEKAEDVTFIDDRVRNIEAAREEGLSTIHFTGLDSLKESIQEGHHHHHH | soluble
MKAQMESWQDIQEYVKNNKKKHKRRMANDAMKNVNELGFPFTYFEDTYQFAIKTSIGMVDYFGTTGTWVVRKNQDRGRGLKKLKKYLEHPVPTKEIKKTKGNQSWMKNNR | not soluble
MNAPVKFEYFKNPKNRELTAVELEAFAKELDQIKQEVLDDIGEKDAKYIRRVYSAVRYSSMLGRACLFAGWFPPAWILGTGLLGFSKIMENMELGHNVMHGQYDWMNDPKFNGQTYEWDTVGTADNWRQTHNYKHHTYTNIKGIDDDIGYGLLRLFPEQRWKPGFLLQPIYSIPFCMLFQWGVAIQNLEIGKLIYKRKTWKQFKQECKPTQKKIGKQLFKDYVFFPLIAGPAALPVFTGNLVANGIRNAWTFSIIFCGHFTKDVEVFPKTVLQNETRGHWYMRQIRGSSNLTGSEAFHILTGHLSHQIEHHLFPDVPARRYRQMAPKVEAVCKKYGLNYNNASLFKQYGQVLGRIVKYAFPFKKLEHHHHHH | soluble
MGGSHHHHHHGMASALFRMLNSSFEDDPFFSESILAHRENMRQMIRSFSEPFGRDLLSISDGRGRAHNRRGHNDGEDSLTHTDVSSFQTMDQMVSNMRNYMQKLERNFGQLSVDPNGHSFCSSSVMTYSKIGDEPPKVFQASTQTRRAPGGIKETRKAMRDSDSGLEKMAIGHHIHDRAHVIKKSKNKKTGDEEVNQEFINMNESDAHAFDEEWQSEVLKYKPGRHNLGNTRMRSVGHENPGSRELKRREKPQQSPAIEHGRRSNVLGDKLHIKGSSVKSNKK | not soluble
MAQFTEDEKIMRRLEQRFNKGVVKYRLIEDGDKILIGLSGGKDSLALLELLARRSRILKPKFTVIAVHVGMTNIPYQSDLEYLKGYSEDLGVPFVHYETFFDPSTDTRKSPCFLCSWNRRKALFTVAKEQGCNKIALGHHMDDILETLLMNITFQGAFSTMPPKLVMRKFEMTIIRPMCLVHEADLIEMARIRGFRKQIKDCPYESLSNRSNMKEVLYSLEKMNPEARYSLWKCMTNIQEELLPGMNEHDL | not soluble
MAHHHHHHMYGGNNLRKFIPLVDIPLLGNKNNLLIFCGKVNFGSKKQKEKVDKETKKFRKFLKISNMKNNDEDEKYEGDINEGDMKKKMKGISGMTRIDYKIYDIKIQEINKNFENKIKKIFDTCLQIDFFNNISILKDKKNIKLCDVAQVVIKSSNLIYFYPYTINDIQKIIHNLKLKDNTWNPTVSNDGQYVILQIQPLSEDVKMKKKKEAKDLFEKIKNDIRNVRYKIRDDIIKNIEGDQWKIVERNKLDNYIKDKMKLIENVYEQSVKNY | not soluble
MRVFVVGGTGFVGQEVVRLLLARGHTPLVLARRSRPLPEGAVLVEGDIAREVPDLEGVEAAIYLAGIIRERGQTFRAVHVEGVRNLLRAMERAGVGRLLHMSALGARPEAPSRYHRTKAEGEALVRQSGLSHAIFRPSLIFGPGDEFFGRVLRGLVCAPLPFVPLIGDGGFPFRPVYVGDVAEAFVGALERGLEGTYDLVGPKEYSFRELLQLVMEVLGRRKPFLSLPLWLMDRLVPLLSPLPISPLTLDQYLMLKEGNTAPFPEALKELLPAPQALEEVLPRYLRC | soluble
MSLYKVLALDLDGTVLSDDHTIHPQVKDAIRAAQQHCHVLIVTGRHHTAARPYYDELGLTTPIICCNGTYVYDYASETVLEHNAIDKQDALTFIDLAQEFQLKLVMYIKDAMTYSQRSPIAYMQALEKWAQAASLTHPPQIYAIDSFHQTARDSEFVWKFVVEGLPSSVERLLEHPWVNAHFNGERSWSNRIDFAAKGNSKGLRLAQYVAQLGYAANHVMAIGDNHNDISMLRYAGHGVAMANADDTVKSYARSLCSTDNNHAGLAQLIREHIQGEGHHHHHH | soluble
MMTSNSYWQRLKVAFQYVMPQIYLTQIAGWFAKQKWGKITHFVIKAFAKKYNIDMSIAQKEQFSDYASFNEFFIRPLKENARPINQNPTALCLPADGRISECGHIDDNLLLQAKGHFFSLEDLLAEDKELVETFKNGEFVTTYLSPRDYHRVHMPCDATLRKMIYVPGDLFSVNPFLAQHVPNLFARNERVICVFDTEFGTMVQILVGATITASIGTTWAGVINPPRHNEVKTWTYEGESAVKLLKGQEMGWFQLGSTVINLFQANQVRLADHLSVNEPVRMGEILAYKKLEHHHHHH | not soluble
MNNNTTAPTYTLRGLQLIGWRDMQHALDYLFADGQLKQGTLVAINAEKMLTIEDNAEVRELINAAEFKYADGISVVRSVRKKYPQAQVSRVAGADLWEELMARAGKEGTPVFLVGGKPEVLAQTEAKLRNQWNVNIVGSQDGYFKPEQRQALFERIHASGAQIVTVAMGSPKQEIIMRDCRLVHPDALYMGVGGTYDVFTGHVKRAPKIWQTLGLEWLYRLLSQPSRIKRQLRLLRYLRWHYTGNL | soluble
KKLLLIGAGRISYYLLNILKNNRIKVKLIEQKMDRAQTFSQVFPEVSVILGDGTAKDLLLEESAASYDAVATLTGVDEENIITSMFLESLGVHKNITKVNRTSLLEIVDTRETTTIVTPKSIAVDTVMHFVRGHYNA | not soluble
MGSDKIHHHHHHLEEILKLKASDTASLEARGEANKKYGIQDFDTWVKRILSRINCSSVLDVCCGTGNQLTYYIQMPCTTNILGVDISKDSLKIARQRCEYLLSTNKKLTLKCCKMEEMFDDKEIDRQYDLISCFYGLYYAEDVDVIVERMIDHLNHKGVFLIVGPYGKNNASLFEIIQKHCMIPELVIKSSTTFMQEDLILKLVTLPGISVDTETFVNPILYPSPQAVMDYWQASTFYVPQYHSTIQQELEKRFENHDVFVVEKHIMAIIASKL | not soluble
